# Experimental data from PMC9860497.
# Target: 14-3-3γ (UniProt P61982)
# Assay: anti-Flag co-IP, anti-HA blot
# Settings: reference: wild-type HA-TMCC3-D1; sites S15
substance,measurement,value
"TMCC3 TMCC3-D1, 1-210 (from UniProt Q8R310) HA-TMCC3-D1-S15A",binding against the reference,weaker
